In patent US9127040B2, “Regulation of sodium channels by PLUNC proteins” (The University of North Carolina at Chapel Hill, priority 2011, dated 2015):

System: NL HBECs
Test: ASL height by confocal microscopy in normal lung (NL) HBECs
Type: cell-based, human
Conditions: SPLUNC1 shRNA knockdown, 50 ng/ml rSPLUNC1 added to ASL
Protocol: To label airway surface liquid, Ringer containing Texas Red-dextran (2 mg/ml; Invitrogen) was added to human bronchial epithelial culture mucosal surfaces. Perfluorocarbon was added mucosally to prevent evaporation of the airway surface liquid and the culture placed in a chamber containing 100 μl Ringer on the stage of a Leica SP5 confocal microscope with a 63× glycerol immersion objective. 5 points per culture were scanned and an average airway surface liquid height determined. For confocal microscopy human bronchial epithelial cultures were bathed serosally in a modified Ringer solution containing (mM): 116 NaCl, 10 NaHCO3, 5.1 KCl, 1.2 CaCl2, 1.2 MgCl2, 20 TES, 10 glucose, pH 7.4). At all other times, human bronchial epithelial cultures were maintained in a modified BEGM growth medium which contained 24 mM NaHCO3 gassed with 5% CO2.
To label the ASL, PBS containing 10 kDa Rhodamine dextran (0.2-2 mg/mL; Invitrogen, Carlsbad, Calif., USA) was added to HBEC mucosal surfaces as previously described (Tarran et al., Mol. Cell 8:149 (2001)). When added, peptides with or without 100 nM neutrophil elastase, 1 U/mL aprotinin, activated neutrophil supernatant (ANS) (Haynes et al., Am. J. Physiol. Heart Circ. Physiol. 294:H379 (2008)) or 10 μM sivelestat (Sigma-Aldrich, St Louis, Mo., USA) were added to the mucosal surface along with the Rhodamine dextran. Bumetanide (100 μM) was added to the serosal solution.

B1: SPLUNC1: human SPLUNC1 (SEQ ID NO:1), 256 amino acid secreted PLUNC family protein; rSPLUNC1 is the purified V5/6His-tagged recombinant form (protein, listed as Homo sapiens)
chain: MFQTGGLIVFYGLLAQTMAQFGGLPVPLDQTLPLNVNPALPLSPTGLAGSLTNALSNGLLSGGLLGILENLPLLDILKPGGGTSGGLLGGLLGKVTSVIPGLNNIIDIKVTDPQLLELGLVQSPDGHRLYVTIPLGIKLQVNTPLVGASLLRLAVKLDITAEILAVRDKQERIHLVLGDCTHSPGSLQISLLDGLGPLPIQGLLDSLTGILNKVLPELVQGNVCPLVNEVLRGLDITLVHDIVNMLIHGLQFVIKV
modifications: V5/6His tag in recombinant form
notes: rSPLUNC1 is the purified V5/6His-tagged recombinant form
regulation of airway surface liquid height in cultures lacking SPLUNC1: restored
regulation of airway surface liquid height in cultures lacking SPLUNC1 (listed as recombinant SPLUNC1): sufficient to restore ASL volume regulation
